Key:
Test in all cases: EMSA
[1] = tested on: PRC2-AEBP2L(TEV)-JARID2 cleaved with TEV (Homo sapiens); conditions: with TEV; Hill 2.7 ± 0.4; CpG24 EMSA/FA: 50 mM Tris pH 7.5, 100 mM KCl (FA 25/50/100), 0.05% NP40, 0.1 mg/ml BSA, 2 mM 2-ME, 30 C; CpG46 FA: 20 mM Tris pH 8.0, 100 mM NaCl, 0.1 mM …
[2] = tested on: PRC2-AEBP2L(TEV)-JARID2, uncleaved (Homo sapiens); conditions: no TEV; Hill 2.4 ± 0.2; CpG24 EMSA/FA: 50 mM Tris pH 7.5, 100 mM KCl (FA 25/50/100), 0.05% NP40, 0.1 mg/ml BSA, 2 mM 2-ME, 30 C; CpG46 FA: 20 mM Tris pH 8.0, 100 mM NaCl, 0.1 mM …
[3] = tested on: PRC2-AEBP2L-JARID2 wild-type (Homo sapiens), Q6ZN18-2+Q92833+Q15910-2+Q15022+O75530+Q09028; conditions: 2.5 mM Mg2+, 100 mM NaCl; CpG24 EMSA/FA: 50 mM Tris pH 7.5, 100 mM KCl (FA 25/50/100), 0.05% NP40, 0.1 mg/ml BSA, 2 mM 2-ME, 30 C; CpG46 FA: 20 mM Tris pH 8.0, 100 mM NaCl, 0.1 mM …
[4] = tested on: PRC2-AEBP2L mt1A2A-JARID2 E37A;E38A;E39A;E40A;E41A;E42A;E43A;E44A;E45A;E46A;E47A;E48A;E95A;D96A;E97A;D98A;E99A;E100A;E101A;D102A;D103A;E104A;E105A;E106A;E107A;D108A;E109A (Homo sapiens), Q6ZN18-2+Q92833+Q15910-2+Q15022+O75530+Q09028; conditions: 2.5 mM Mg2+, 100 mM NaCl; CpG24 EMSA/FA: 50 mM Tris pH 7.5, 100 mM KCl (FA 25/50/100), 0.05% NP40, 0.1 mg/ml BSA, 2 mM 2-ME, 30 C; CpG46 FA: 20 mM Tris pH 8.0, 100 mM NaCl, 0.1 mM …

NCP182 showed a Kd [1] of 18.7 nM, a Kd [2] of 24.8 nM and a Kd [3] of 33 nM. It also gave a Kd [4] of 15.6 nM.
